We go through two molecules from patent publication US20070060522A1 (ENSION, published 2007).

Assay [1] has as its target αMβ2 (Mac-1; CD11b/CD18) on human peripheral blood monocytes (human, UniProt P11215 17-1152; P05107 23-769). The experiment in a line: inferred from peptide blocking of monocyte/A375 adherence under flow. Here is the method:
Pre-treatment of tumor cells with P1 and monocytes with sFn or tumor cells with sFn and monocytes with P2 inhibited adherence to a similar level to that of sFn treatment of both cells (P>0.05 to fibrin; n=5 in each case).
Peptide Blocking of Cellular Adherence: After fluorescence labeling of each cell type, stock peptides were added to both confluent coverslips and/or 1 milliliter suspensions of monocytes (P1 and P2) and/or sFn solution (P3 and P4) for a final treatment concentration of 4 mM (4 uL added to 1 mL suspension). Cells were treated with peptides for 20 minutes at room temperature, followed directly by washing of cells (by centrifugation and resuspension—monocytes, or perfusion with RPMI 1640 for 10 min—tumor cells). For sFn peptide treatment, peptides remained in the sFn solution during incubation. Monocyte adherence to tumor cells under flow conditions was then performed as described above.

For assay [2], the target named is T1, CD54 (ICAM-1) on A375 human melanoma cells (human, UniProt P05362 28-532).
T1 construct: whole, on cells; also called intercellular adhesion molecule-1
In words: inferred from peptide blocking of monocyte/tumor cell adherence.

T1 sequence (P05362 28-532): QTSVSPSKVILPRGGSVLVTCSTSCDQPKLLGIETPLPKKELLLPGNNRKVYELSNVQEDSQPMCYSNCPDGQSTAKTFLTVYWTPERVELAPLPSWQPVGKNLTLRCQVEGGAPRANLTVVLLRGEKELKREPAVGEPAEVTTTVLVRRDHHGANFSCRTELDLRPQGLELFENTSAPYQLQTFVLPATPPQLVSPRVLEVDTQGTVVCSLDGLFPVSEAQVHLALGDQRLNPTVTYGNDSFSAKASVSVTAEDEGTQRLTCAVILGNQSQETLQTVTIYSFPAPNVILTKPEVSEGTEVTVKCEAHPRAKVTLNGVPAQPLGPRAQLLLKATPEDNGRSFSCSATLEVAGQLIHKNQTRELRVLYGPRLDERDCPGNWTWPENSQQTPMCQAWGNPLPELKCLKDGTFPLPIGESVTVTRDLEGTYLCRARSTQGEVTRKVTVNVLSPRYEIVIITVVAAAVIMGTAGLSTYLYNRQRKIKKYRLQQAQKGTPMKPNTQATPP

B1: Peptide 2 (P2), YKSMKKTTMKIIPFNRLTIF (peptide)
peptide: YKSMKKTTMKIIPFNRLTIF
notes: Synthetic peptide
B1: the binding result in assay [1] is on record as “binds”.

B2: Peptide 1 (P1), NNQKIVNLKEKVAQLEA (peptide)
peptide: NNQKIVNLKEKVAQLEA
notes: Synthetic peptide (Sigma-Genosys, 50% purity)
As for B2, the binding result in assay [2] was “binds”.
